Data from article PMC8685902, “Perception of structurally distinct effectors by the integrated WRKY domain of a plant immune receptor”.

What was measured:
[1] = target: RRS1^WRKY, integrated WRKY domain of RRS1-R (residues 1194 to 1273) (Arabidopsis); test: ITC; AvrRps4^C (wild type or mutant) titrated into a solution of the WRKY domain; three independent experiments fitted globally to a 1:1 binding model (AFFINImeter)
[2] = target: AvrRps4^C, in planta processed C-terminal fragment of AvrRps4 (residues 134 to 221) (Pseudomonas syringae pv. pisi); test: SEC; analytical gel filtration on a Superdex 75 10/300 column; proteins alone and after incubation at an equimolar (1:1) ratio
[3] = target: RRS1^WRKY, integrated WRKY domain of RRS1-R (residues 1194 to 1273) (Arabidopsis); test: as above
[4] = target: AtWRKY41 (Thr125 to Ile204), DNA-binding domain (Arabidopsis) (UniProt Q8H0Y8); test: ITC; AvrRps4^C (wild type or mutant) titrated into a solution of the WRKY domain; three independent experiments fitted globally to a 1:1 binding model (AFFINImeter)
[5] = target: RRS1B^WRKY, integrated WRKY domain of RRS1B (Asn1164 to Thr1241) (Arabidopsis) (UniProt Q9FL92); test: as above
Sequence of RRS1B^WRKY, integrated WRKY domain of RRS1B (Asn1164 to Thr1241) (Arabidopsis) (Q9FL92 1164-1241): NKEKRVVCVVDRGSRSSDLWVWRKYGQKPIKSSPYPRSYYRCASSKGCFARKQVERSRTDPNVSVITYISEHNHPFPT

[6] = target: AtWRKY41 DNA-binding domain (Thr125-Ile204) (Arabidopsis) (UniProt Q8H0Y8); test: ITC; MicroCal PEAQ-ITC; cell 20 uM RRS1WRKY, AtWRKY41 or RRS1BWRKY, syringe 200 uM AvrRps4C wild type or mutant; 25 C; buffer A4 (20 mM HEPES pH 7.5, 150 mM NaCl); triplicate, global fit to a 1:1 binding model (AFFINImeter)
[7] = target: RRS1B^WRKY, integrated WRKY domain of RRS1B (Asn1164-Thr1241) (Arabidopsis) (UniProt Q9FL92); test: as above
Sequence of RRS1B^WRKY, integrated WRKY domain of RRS1B (Asn1164-Thr1241) (Arabidopsis) (Q9FL92 1164-1241): as above

[8] = target: T1, RRS1 WRKY domain (RRS1-R) (UniProt C4B7M5 1194-1273); test: EMSA; no effector; EMSA: 10 mM Tris-Cl pH 7.5, 50 mM KCl, 1 mM DTT, 5% glycerol; SPR: 10 mM HEPES pH 7.5, 250 mM NaCl, 0.005% Tween-20, 25 C (Biacore 8K, ReDCaT); conditions: protein: recombinant; tags: 6xHis-MBP (pOPIN-M), cleaved with 3C; label: 5' Cy3 on forward strand; blunt
T1 sequence: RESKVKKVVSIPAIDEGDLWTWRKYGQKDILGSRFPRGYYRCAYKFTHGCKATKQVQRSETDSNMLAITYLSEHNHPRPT

[9] = target: T2, AtWRKY41 DNA-binding domain (UniProt Q8H0Y8 125-204); test: as above; conditions: protein: recombinant; tags: 6xHis-MBP (pOPIN-M), cleaved with 3C; label: 5' Cy3 on forward strand; blunt
T2 sequence: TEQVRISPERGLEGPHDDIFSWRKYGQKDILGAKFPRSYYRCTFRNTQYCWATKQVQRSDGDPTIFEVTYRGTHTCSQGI

In the case of AvrRps4^C Q194A (domain or fragment), the fold reduction in affinity against wild-type AvrRps4^C [1] is reported as 7 fold.

For “AvrRps4^C, in planta processed C-terminal fragment of AvrRps4 (residues 134 to 221) (domain or fragment)”, the stoichiometry N [2] was 2, the stoichiometry N [3] was 1 and the Kd [4] was 20 nM. It also gave a fold weaker binding than to RRS1^WRKY [5] of 3 fold, a Kd [1] of 103 nM and a stoichiometry N [1] of 1.

“AvrRps4^C, the in planta processed C-terminal fragment of AvrRps4 (residues 134-221) (domain or fragment)” was tested, and the stoichiometry N [6] was 1.1 and the stoichiometry N [7] was 0.8.

B1: Cy3 W-box DNA (dsDNA)
DNA 1: CGCCTTTGACCAGCGC
DNA 2: GCGCTGGTCAAAGGCG
B1: binds [8]; binds [9].
